Results on seven molecules are retold here after patent publication US20200199234A1 (published 2020).

The term EC50 denotes the concentration needed to bring the measured effect to its halfway point. A higher EC50 goes with a less potent agent.

Test [1] concerns the target T1, FcRn, biotinylated, coupled to streptavidin-sepharose (Homo sapiens (Human), UniProt P55899 24-297; P61769 21-119, The receptor is biotinylated and coupled to streptavidin-sepharose. The patent states neither the biotinylation site nor any tag.).
T1 construct: also called FcRn-sepharose matrix; copies: 1 + 1
Description: FcRn affinity chromatography.

Test [2] has as its target T2, human CD19 on Nalm6 B cells (human, UniProt P15391 20-556).
T2 sequence: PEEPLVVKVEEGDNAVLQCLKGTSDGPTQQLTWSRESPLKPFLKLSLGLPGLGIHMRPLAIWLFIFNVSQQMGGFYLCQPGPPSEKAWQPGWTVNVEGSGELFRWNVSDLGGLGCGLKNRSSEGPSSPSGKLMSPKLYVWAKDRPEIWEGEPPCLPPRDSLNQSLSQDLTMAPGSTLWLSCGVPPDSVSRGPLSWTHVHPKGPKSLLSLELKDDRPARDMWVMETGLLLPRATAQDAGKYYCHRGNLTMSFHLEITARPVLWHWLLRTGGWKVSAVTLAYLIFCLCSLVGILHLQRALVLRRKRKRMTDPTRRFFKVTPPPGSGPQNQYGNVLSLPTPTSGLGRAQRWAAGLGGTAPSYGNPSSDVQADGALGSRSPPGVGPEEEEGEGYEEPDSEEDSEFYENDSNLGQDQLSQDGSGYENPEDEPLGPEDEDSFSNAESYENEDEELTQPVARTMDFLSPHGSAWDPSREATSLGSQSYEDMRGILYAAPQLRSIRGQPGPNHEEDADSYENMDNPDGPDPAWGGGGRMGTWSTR
In words: flow cytometry on Nalm6 cells. A general note: Flow cytometry measures light scatter and fluorescence of single cells or particles in a stream.

Test [3] has as its target T3, human CD28 expressed on cells (CHO-k1 stably overexpressing human CD28; T cells in functional assays) (human, UniProt P10747 19-220).
T3 construct: also called CHO huCD28; CHOk1-CD28
Description: flow cytometry on CHOk1-CD28 cells.

B1: Molecule 11D: CEA (A5H1EL1D)-CD28 (SA_Variant 29) 1+1 format (bispecific antibody, human IgG1, kappa, L234A L235A)
heavy 1: EIVLTQSPATLSLSPGERATLSCRASSSVTYIHWYQQKPGQAPRSWIYATSNLASGIPARFSGSGSGTDFTLTISSLEPEDFAVYYCQHWSSKPPTFGQGTKLEIKSSASTKGPSVFPLAPSSKSTSGGTAALGCLVKDYFPEPVTVSWNSGALTSGVHTFPAVLQSSGLYSLSSVVTVPSSSLGTQTYICNVNHKPSNTKVDKKVEPKSCDKTHTCPPCPAPEAAGGPSVFLFPPKPKDTLMISRTPEVTCVVVDVSHEDPEVKFNWYVDGVEVHNAKTKPREEQYNSTYRVVSVLTVLHQDWLNGKEYKCKVSNKALGAPIEKTISKAKGQPREPQVCTLPPSRDELTKNQVSLSCAVKGFYPSDIAVEWESNGQPENNYKTTPPVLDSDGSFFLVSKLTVDKSRWQQGNVFSCSVMHEALHNHYTQKSLSLSP
light 1: EVQLLESGGGLVQPGGSLRLSCAASGFTFTDYYMNWVRQAPGKGLEWLGFIGNKANAYTTEYSASVKGRFTISRDKSKNTLYLQMNSLRAEDTATYYCTRDRGLRFYFDYWGQGTTVTVSSASVAAPSVFIFPPSDEQLKSGTASVVCLLNNFYPREAKVQWKVDNALQSGNSQESVTEQDSKDSTYSLSSTLTLSKADYEKHKVYACEVTHQGLSSPVTKSFNRGEC
heavy 2: not shown
light 2: not shown
notes: also called P1AE4776; copies: 1 + 1 + 1 + 1
Consider B1, for which the “FcRn affinity (relative retention time)” value in test [1] was 0.17.

B2: Molecule 11C: CEA (A5H1EL1D)-CD28 (SA_Variant 15) 1+1 format (bispecific antibody, human IgG1, kappa, L234A L235A)
heavy 1: EIVLTQSPATLSLSPGERATLSCRASSSVTYIHWYQQKPGQAPRSWIYATSNLASGIPARFSGSGSGTDFTLTISSLEPEDFAVYYCQHWSSKPPTFGQGTKLEIKSSASTKGPSVFPLAPSSKSTSGGTAALGCLVKDYFPEPVTVSWNSGALTSGVHTFPAVLQSSGLYSLSSVVTVPSSSLGTQTYICNVNHKPSNTKVDKKVEPKSCDKTHTCPPCPAPEAAGGPSVFLFPPKPKDTLMISRTPEVTCVVVDVSHEDPEVKFNWYVDGVEVHNAKTKPREEQYNSTYRVVSVLTVLHQDWLNGKEYKCKVSNKALGAPIEKTISKAKGQPREPQVCTLPPSRDELTKNQVSLSCAVKGFYPSDIAVEWESNGQPENNYKTTPPVLDSDGSFFLVSKLTVDKSRWQQGNVFSCSVMHEALHNHYTQKSLSLSP
light 1: EVQLLESGGGLVQPGGSLRLSCAASGFTFTDYYMNWVRQAPGKGLEWLGFIGNKANAYTTEYSASVKGRFTISRDKSKNTLYLQMNSLRAEDTATYYCTRDRGLRFYFDYWGQGTTVTVSSASVAAPSVFIFPPSDEQLKSGTASVVCLLNNFYPREAKVQWKVDNALQSGNSQESVTEQDSKDSTYSLSSTLTLSKADYEKHKVYACEVTHQGLSSPVTKSFNRGEC
heavy 2: not shown
light 2: not shown
notes: also called P1AE4775; copies: 1 + 1 + 1 + 1
As to B2, in test [1], the “FcRn affinity (relative retention time)” value is 0.1.

B3: Molecule 11B: CEA (A5H1EL1D)-CD28 (SA_Variant 8) 1+1 format (bispecific antibody, human IgG1, kappa, L234A L235A)
heavy 1: EIVLTQSPATLSLSPGERATLSCRASSSVTYIHWYQQKPGQAPRSWIYATSNLASGIPARFSGSGSGTDFTLTISSLEPEDFAVYYCQHWSSKPPTFGQGTKLEIKSSASTKGPSVFPLAPSSKSTSGGTAALGCLVKDYFPEPVTVSWNSGALTSGVHTFPAVLQSSGLYSLSSVVTVPSSSLGTQTYICNVNHKPSNTKVDKKVEPKSCDKTHTCPPCPAPEAAGGPSVFLFPPKPKDTLMISRTPEVTCVVVDVSHEDPEVKFNWYVDGVEVHNAKTKPREEQYNSTYRVVSVLTVLHQDWLNGKEYKCKVSNKALGAPIEKTISKAKGQPREPQVCTLPPSRDELTKNQVSLSCAVKGFYPSDIAVEWESNGQPENNYKTTPPVLDSDGSFFLVSKLTVDKSRWQQGNVFSCSVMHEALHNHYTQKSLSLSP
light 1: EVQLLESGGGLVQPGGSLRLSCAASGFTFTDYYMNWVRQAPGKGLEWLGFIGNKANAYTTEYSASVKGRFTISRDKSKNTLYLQMNSLRAEDTATYYCTRDRGLRFYFDYWGQGTTVTVSSASVAAPSVFIFPPSDEQLKSGTASVVCLLNNFYPREAKVQWKVDNALQSGNSQESVTEQDSKDSTYSLSSTLTLSKADYEKHKVYACEVTHQGLSSPVTKSFNRGEC
heavy 2: not shown
light 2: not shown
notes: also called P1AE4774; copies: 1 + 1 + 1 + 1
With B3, the “FcRn affinity (relative retention time)” value in test [1] turned out to be 0.08.

B4: Molecule 11A: CEA (A5H1EL1D)-CD28 (SA) 1+1 format (bispecific antibody, human IgG1, kappa, L234A L235A)
heavy 1: EIVLTQSPATLSLSPGERATLSCRASSSVTYIHWYQQKPGQAPRSWIYATSNLASGIPARFSGSGSGTDFTLTISSLEPEDFAVYYCQHWSSKPPTFGQGTKLEIKSSASTKGPSVFPLAPSSKSTSGGTAALGCLVKDYFPEPVTVSWNSGALTSGVHTFPAVLQSSGLYSLSSVVTVPSSSLGTQTYICNVNHKPSNTKVDKKVEPKSCDKTHTCPPCPAPEAAGGPSVFLFPPKPKDTLMISRTPEVTCVVVDVSHEDPEVKFNWYVDGVEVHNAKTKPREEQYNSTYRVVSVLTVLHQDWLNGKEYKCKVSNKALGAPIEKTISKAKGQPREPQVCTLPPSRDELTKNQVSLSCAVKGFYPSDIAVEWESNGQPENNYKTTPPVLDSDGSFFLVSKLTVDKSRWQQGNVFSCSVMHEALHNHYTQKSLSLSP
light 1: EVQLLESGGGLVQPGGSLRLSCAASGFTFTDYYMNWVRQAPGKGLEWLGFIGNKANAYTTEYSASVKGRFTISRDKSKNTLYLQMNSLRAEDTATYYCTRDRGLRFYFDYWGQGTTVTVSSASVAAPSVFIFPPSDEQLKSGTASVVCLLNNFYPREAKVQWKVDNALQSGNSQESVTEQDSKDSTYSLSSTLTLSKADYEKHKVYACEVTHQGLSSPVTKSFNRGEC
heavy 2: not shown
light 2: not shown
notes: also called P1AE4773; copies: 1 + 1 + 1 + 1
As for B4, the “FcRn affinity (relative retention time)” value in test [1] amounted to 0.21.

B5: Molecule 18B: CD19 (8B8-2B11)-CD28 (SA v15) 1+1 (bispecific antibody, human IgG1, kappa, L234A L235A)
heavy 1: not shown
heavy 2: DIVMTQTPLSLSVTPGQPASISCKSSQSLETSTGTTYLNWYLQKPGQSPQLLIYRVSKRFSGVPDRFSGSGSGTDFTLKISRVEAEDVGVYYCLQLLEDPYTFGQGTKLEIKSSASTKGPSVFPLAPSSKSTSGGTAALGCLVKDYFPEPVTVSWNSGALTSGVHTFPAVLQSSGLYSLSSVVTVPSSSLGTQTYICNVNHKPSNTKVDKKVEPKSCDKTHTCPPCPAPEAAGGPSVFLFPPKPKDTLMISRTPEVTCVVVDVSHEDPEVKFNWYVDGVEVHNAKTKPREEQYNSTYRVVSVLTVLHQDWLNGKEYKCKVSNKALGAPIEKTISKAKGQPREPQVCTLPPSRDELTKNQVSLSCAVKGFYPSDIAVEWESNGQPENNYKTTPPVLDSDGSFFLVSKLTVDKSRWQQGNVFSCSVMHEALHNHYTQKSLSLSP
light 1: not shown
light 2: QVQLVQSGAEVKKPGASVKVSCKASGYTFTDYIMHWVRQAPGQGLEWMGYINPYNDGSKYTEKFQGRVTMTSDTSISTAYMELSRLRSDDTAVYYCARGTYYYGPQLFDYWGQGTTVTVSSASVAAPSVFIFPPSDEQLKSGTASVVCLLNNFYPREAKVQWKVDNALQSGNSQESVTEQDSKDSTYSLSSTLTLSKADYEKHKVYACEVTHQGLSSPVTKSFNRGEC
notes: also called P1AE9040; CD19-CD28 v15
Turning to B5, the EC50 in test [2] is 0.416 nM; in test [3], 15.6 nM.

B6: Molecule 18E: CD19 (8B8-2B11)-CD28 (SA v27) 1+1 (bispecific antibody, human IgG1, kappa, L234A L235A)
heavy 1: not shown
heavy 2: DIVMTQTPLSLSVTPGQPASISCKSSQSLETSTGTTYLNWYLQKPGQSPQLLIYRVSKRFSGVPDRFSGSGSGTDFTLKISRVEAEDVGVYYCLQLLEDPYTFGQGTKLEIKSSASTKGPSVFPLAPSSKSTSGGTAALGCLVKDYFPEPVTVSWNSGALTSGVHTFPAVLQSSGLYSLSSVVTVPSSSLGTQTYICNVNHKPSNTKVDKKVEPKSCDKTHTCPPCPAPEAAGGPSVFLFPPKPKDTLMISRTPEVTCVVVDVSHEDPEVKFNWYVDGVEVHNAKTKPREEQYNSTYRVVSVLTVLHQDWLNGKEYKCKVSNKALGAPIEKTISKAKGQPREPQVCTLPPSRDELTKNQVSLSCAVKGFYPSDIAVEWESNGQPENNYKTTPPVLDSDGSFFLVSKLTVDKSRWQQGNVFSCSVMHEALHNHYTQKSLSLSP
light 1: not shown
light 2: QVQLVQSGAEVKKPGASVKVSCKASGYTFTDYIMHWVRQAPGQGLEWMGYINPYNDGSKYTEKFQGRVTMTSDTSISTAYMELSRLRSDDTAVYYCARGTYYYGPQLFDYWGQGTTVTVSSASVAAPSVFIFPPSDEQLKSGTASVVCLLNNFYPREAKVQWKVDNALQSGNSQESVTEQDSKDSTYSLSSTLTLSKADYEKHKVYACEVTHQGLSSPVTKSFNRGEC
notes: also called P1AF0378; CD19-CD28 v27
Take B6: the EC50 in test [2] turned out to be 0.368 nM; in test [3] it was 10.8 nM.

B7: Molecule 18D: CD19 (8B8-2B11)-CD28 (SA v11) 1+1 (bispecific antibody, human IgG1, kappa, L234A L235A)
heavy 1: not shown
heavy 2: DIVMTQTPLSLSVTPGQPASISCKSSQSLETSTGTTYLNWYLQKPGQSPQLLIYRVSKRFSGVPDRFSGSGSGTDFTLKISRVEAEDVGVYYCLQLLEDPYTFGQGTKLEIKSSASTKGPSVFPLAPSSKSTSGGTAALGCLVKDYFPEPVTVSWNSGALTSGVHTFPAVLQSSGLYSLSSVVTVPSSSLGTQTYICNVNHKPSNTKVDKKVEPKSCDKTHTCPPCPAPEAAGGPSVFLFPPKPKDTLMISRTPEVTCVVVDVSHEDPEVKFNWYVDGVEVHNAKTKPREEQYNSTYRVVSVLTVLHQDWLNGKEYKCKVSNKALGAPIEKTISKAKGQPREPQVCTLPPSRDELTKNQVSLSCAVKGFYPSDIAVEWESNGQPENNYKTTPPVLDSDGSFFLVSKLTVDKSRWQQGNVFSCSVMHEALHNHYTQKSLSLSP
light 1: not shown
light 2: QVQLVQSGAEVKKPGASVKVSCKASGYTFTDYIMHWVRQAPGQGLEWMGYINPYNDGSKYTEKFQGRVTMTSDTSISTAYMELSRLRSDDTAVYYCARGTYYYGPQLFDYWGQGTTVTVSSASVAAPSVFIFPPSDEQLKSGTASVVCLLNNFYPREAKVQWKVDNALQSGNSQESVTEQDSKDSTYSLSSTLTLSKADYEKHKVYACEVTHQGLSSPVTKSFNRGEC
notes: also called P1AF0377; CD19-CD28 v11
B7: the 50% effective concentration (EC50) in test [2] is 0.363 nM; in test [3] it was 150 nM.
